T1: APOBEC2 (Mus musculus, UniProt Q9WV35 1-224)
T1 sequence: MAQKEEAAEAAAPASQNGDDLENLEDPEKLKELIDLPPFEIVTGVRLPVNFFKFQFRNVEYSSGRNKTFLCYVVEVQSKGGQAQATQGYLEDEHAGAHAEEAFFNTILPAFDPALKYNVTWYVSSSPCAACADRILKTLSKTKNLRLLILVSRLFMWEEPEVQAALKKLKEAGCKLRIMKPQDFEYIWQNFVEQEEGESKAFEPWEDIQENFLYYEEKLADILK

B1: SP/KLF motif dsDNA (dsDNA)
DNA 1: GGCGGCGCGGCCCCGCCCCCTCCTCCGGC
DNA 2: GCCGGAGGAGGGGGCGGGGCCGCGCCGCC
B2: A-tract motif dsDNA (dsDNA)
DNA 1: TCTCAAGAAAAAAAAAAAAAGAC
DNA 2: GTCTTTTTTTTTTTTTCTTGAGA

Legend:
APOBEC2 [1] = molecular target: T1, APOBEC2; experiment: MST
SP1 = SP1 (Homo sapiens, UniProt P08047 2-785); experiment: EMSA
SP1, sequence (P08047 2-785): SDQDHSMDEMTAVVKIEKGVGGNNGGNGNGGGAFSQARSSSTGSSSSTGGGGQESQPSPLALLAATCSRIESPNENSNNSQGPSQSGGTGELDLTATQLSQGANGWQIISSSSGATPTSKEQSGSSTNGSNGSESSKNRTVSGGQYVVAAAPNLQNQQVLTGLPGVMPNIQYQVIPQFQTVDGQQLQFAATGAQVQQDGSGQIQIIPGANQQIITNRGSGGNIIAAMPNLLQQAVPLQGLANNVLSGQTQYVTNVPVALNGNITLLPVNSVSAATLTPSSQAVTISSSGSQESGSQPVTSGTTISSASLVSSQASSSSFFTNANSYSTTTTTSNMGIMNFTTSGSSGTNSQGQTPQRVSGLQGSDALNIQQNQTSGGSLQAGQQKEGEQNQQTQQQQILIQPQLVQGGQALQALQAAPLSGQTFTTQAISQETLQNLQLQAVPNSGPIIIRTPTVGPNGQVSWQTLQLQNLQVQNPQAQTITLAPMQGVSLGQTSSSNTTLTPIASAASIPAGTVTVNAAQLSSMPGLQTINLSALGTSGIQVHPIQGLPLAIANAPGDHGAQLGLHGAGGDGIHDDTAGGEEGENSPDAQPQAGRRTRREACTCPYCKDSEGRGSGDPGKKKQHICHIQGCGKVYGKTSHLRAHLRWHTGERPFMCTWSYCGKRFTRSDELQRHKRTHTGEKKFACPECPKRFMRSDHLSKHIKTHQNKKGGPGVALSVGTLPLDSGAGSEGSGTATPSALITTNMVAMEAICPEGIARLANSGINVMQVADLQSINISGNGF

APOBEC2 [2] = molecular target: T1, APOBEC2; experiment: MST; remark: listed apart in the source

| Binder | Kd (APOBEC2 [1]) [nM] | binding result (SP1) | binding result (APOBEC2 [2]) |
| --- | --- | --- | --- |
| B1 | 709 ± 186 | binds |  |
| B2 |  |  | no binding |
